Experimental data taken from patent US20140120109A1.

Experiments:
[1] = target: full length human TL1A expressed on HEK293 cells (human) (UniProt O95150); assay: flow, HEK293/hTL1A, isotype control 1 ug/ml in place of anti-hTL1A (background; same value as r16c8, printed under column 1745P)
[2] = target: full length human TL1A expressed on HEK293 cells (human) (UniProt O95150); assay: flow, HEK293/hTL1A, isotype control 1 ug/ml in place of anti-hTL1A (background; same value as r16c2, printed under column 1804N)
[3] = target: full length human TL1A expressed on HEK293 cells (human) (UniProt O95150); assay: flow, HEK293/hTL1A, isotype control 1 ug/ml in place of anti-hTL1A (background; same value as r16c2, printed under column 1805N)
[4] = target: full length human TL1A expressed on HEK293 cells (human) (UniProt O95150); assay: flow, HEK293/hTL1A, isotype control 1 ug/ml in place of anti-hTL1A (background; same value as r16c2, printed under column 1817N)
[5] = target: full length human TL1A expressed on HEK293 cells (human) (UniProt O95150); assay: flow, HEK293/hTL1A, isotype control in place of anti-hTL1A (background; columns c2-c7)
[6] = target: full length human TL1A expressed on HEK293 cells (human) (UniProt O95150); assay: flow, HEK293/hTL1A, isotype control 1 ug/ml in place of anti-hTL1A (background; same value as r16c2, printed under column 1742P)
[7] = target: full length human TL1A expressed on HEK293 cells (human) (UniProt O95150); assay: flow, HEK293/hTL1A, isotype control in place of anti-hTL1A (background; columns c8-c9)
[8] = target: full length human TL1A expressed on HEK293 cells (human) (UniProt O95150); assay: flow, HEK293/hTL1A, isotype control 1 ug/ml in place of anti-hTL1A (background; same value as r16c2, printed under column 1725P)

Chain of full length human TL1A expressed on HEK293 cells (human) (O95150 whole entry): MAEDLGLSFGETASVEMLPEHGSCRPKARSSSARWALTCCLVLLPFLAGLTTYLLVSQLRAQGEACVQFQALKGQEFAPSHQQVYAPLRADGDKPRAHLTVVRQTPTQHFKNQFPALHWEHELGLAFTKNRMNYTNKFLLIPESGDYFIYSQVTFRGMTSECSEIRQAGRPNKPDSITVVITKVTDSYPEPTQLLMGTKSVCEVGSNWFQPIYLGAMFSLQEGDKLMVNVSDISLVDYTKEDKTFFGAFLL

- MFI [1]: 17.9
- MFI [2]: 27.5
- MFI [3]: 27.5
- MFI [4]: 27.5
- MFI [5]: 27.5
- MFI [6]: 27.5
- MFI [7]: 17.9
- MFI [8]: 27.5
Substance: negative isotype control antibody (human IgG4)
